# Reference: article PMC8815974, “Mechanistic Insight Into Cadmium- and Zinc-Induced Inactivation of the Candida albicans Pif1 Helicase”
# B1: OhS22D21 (dsDNA)
# DNA 1: CTGTAGGAATGTGAAATAAAAACGATGTTTTATTTACATTGTA
# DNA 2: TACAATGTAAATAAAACATCG
# Target: T1, CaPif1 (Candida albicans, UniProt Q59RQ0 1-906)
# T1 sequence: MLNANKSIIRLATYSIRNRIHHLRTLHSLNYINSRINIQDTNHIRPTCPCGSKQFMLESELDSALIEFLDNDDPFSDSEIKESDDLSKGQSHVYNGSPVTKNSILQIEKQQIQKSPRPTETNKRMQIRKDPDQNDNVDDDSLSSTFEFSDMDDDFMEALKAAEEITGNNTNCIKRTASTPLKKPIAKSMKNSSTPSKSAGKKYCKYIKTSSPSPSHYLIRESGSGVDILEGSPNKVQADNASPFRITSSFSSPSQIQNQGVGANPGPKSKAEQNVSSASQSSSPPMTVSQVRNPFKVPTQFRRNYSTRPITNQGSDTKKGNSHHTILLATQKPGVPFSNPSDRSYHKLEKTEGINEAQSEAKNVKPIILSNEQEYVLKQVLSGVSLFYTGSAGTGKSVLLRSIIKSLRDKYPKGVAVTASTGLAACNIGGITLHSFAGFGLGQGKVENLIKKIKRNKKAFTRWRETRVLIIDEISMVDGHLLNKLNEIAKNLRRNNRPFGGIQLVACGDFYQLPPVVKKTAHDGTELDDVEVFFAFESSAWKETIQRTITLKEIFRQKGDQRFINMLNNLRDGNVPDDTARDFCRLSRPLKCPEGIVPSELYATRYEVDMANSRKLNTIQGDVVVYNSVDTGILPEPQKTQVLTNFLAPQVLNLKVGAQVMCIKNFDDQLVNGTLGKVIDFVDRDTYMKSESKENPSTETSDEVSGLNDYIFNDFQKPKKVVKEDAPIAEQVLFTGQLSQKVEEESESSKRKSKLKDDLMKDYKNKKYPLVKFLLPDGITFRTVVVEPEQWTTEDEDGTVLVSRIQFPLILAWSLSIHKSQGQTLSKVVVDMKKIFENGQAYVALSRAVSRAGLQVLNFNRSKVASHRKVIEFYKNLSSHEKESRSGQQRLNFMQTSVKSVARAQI
# Experiment: EMSA; 1.5 mM Mg2+, no ATP; CaPif1 0-3000 nM; 25 mM Tris-HCl pH 7.5, 50 mM NaCl, 1.5 mM MgCl2, 1 mM DTT, 25 C; EMSA 10 nM DNA, 5 min, 6% native PAGE; FP 5 nM DNA, 10 min
# Settings: protein: recombinant, tags: none (N-terminal His-SUMO tag removed)
Binder,"binding result (label: 3'-FAM on strand 1, 5' overhang 22 nt, 21 bp duplex)","binding result (label: 3'-FAM, single strand, 40 nt)"
B1,binds,
CCATGCAGCTGTCAGTCCATTGTCATGCTAGGCCTACTGC (ssDNA) [S40],,binds
